Reference: paper PMC5222517

Tests used:
[1] = target: HIV-1 Env (HXB2 strain) homotrimer with N656D in gp41 (HIV-1 (HXB2 strain))
[2] = target: HIV-1 Env (HXB2 strain) homotrimer with Q552R/N637K in gp41 (HIV-1 (HXB2 strain))
[3] = target: HIV-1 Env (HXB2 strain) homotrimer with V549A in gp41 (HIV-1 (HXB2 strain))
[4] = target: HIV-1 Env (HXB2 strain) homotrimer with L544S in gp41 (HIV-1 (HXB2 strain))

For “5-Helix, mutant version with L556A/V570A in all three N-HR segments (from UniProt P04578 543-582; P04578 625-661; P04578 543-582; P04578 625-661; P04578 543-582) (designed binder)”, the fold resistance to 5H (LAVA) in inhibition of infection by pseudotyped HIV-1, N656D against wild type Env (HXB2) homotrimers [1] was > 100 fold.

For “C-peptide C37-KYI (from UniProt P04578 625-661)”, the IC50.1 (high potency phase, fraction f = 0.31) of C37-KYI inhibition of infection by pseudotyped HIV-1, two-site inhibition model (HOS-CXCR4+ cells) [2] was 8 nM and the IC50.2 (low potency phase, fraction 1 - f) of C37-KYI inhibition of infection by pseudotyped HIV-1, two-site inhibition model (HOS-CXCR4+ cells) [2] was 180 nM.

In the case of C-peptide T20, the fold resistance to T20 in inhibition of infection by pseudotyped HIV-1, V549A against wild type Env (HXB2) homotrimers (U87.CD4.CXCR4 cells) [3] is reported as 50 fold and the fold resistance to T20 in inhibition of infection by pseudotyped HIV-1, L544S against wild type Env (HXB2) homotrimers (U87.CD4.CXCR4 cells) [4] is reported as 30 fold.
